From US20200407424A1 (FRAUNHOFER GESELLSCHAFT ZUR F RDERUNG DER ANGEWANDTEN …, published 2020)
Square brackets hold non-standard residues; d marks the D form. Ends that are not written are not given here. Cit = NC(=O)NCCC[C@H](N)C(=O)O

B1: citrullinated a-enolase peptide ref no 305 (peptide)
peptide: VIGMDVAASEFF[Cit]SG
B2: citrullinated a-enolase peptide ref no 302 (peptide)
peptide: LPVGAANF[Cit]EAM[Cit]IG
B3: citrullinated a-enolase peptide ref no 287 (peptide)
peptide: MSILKIHA[Cit]EIFDS[Cit]
B4: citrullinated a-enolase peptide ref no 313 (peptide)
peptide: K[Cit]IAKAVNEKSCNCL
modifications: cysteine pairing not given here
B5: citrullinated a-enolase peptide ref no 300 (peptide)
peptide: Y[Cit]HIADLAGNSEVIL
B6: corresponding non-citrullinated peptide of a-enolase peptide 300 (peptide)
peptide: YRHIADLAGNSEVIL
B7: citrullinated a-enolase peptide ref no 301 (peptide)
peptide: QEFMILPVGAANF[Cit]E
B8: citrullinated a-enolase peptide ref no 289 (peptide)
peptide: IFDS[Cit]GNPTVEVDLF
B9: citrullinated a-enolase peptide ref no 297 (peptide)
peptide: [Cit]YMGKGVSKAVEHIN
B10: corresponding non-citrullinated peptide of a-enolase peptide 292 (peptide)
peptide: FRAAVPSGASTGIYE
B11: corresponding non-citrullinated peptide of a-enolase peptide 302 (peptide)
peptide: LPVGAANFREAMRIG
B12: citrullinated a-enolase peptide ref no 324 (peptide)
peptide: KAKFAG[Cit]NF[Cit]NPLAK
B13: citrullinated a-enolase peptide ref no 292 (peptide)
peptide: F[Cit]AAVPSGASTGIYE
B14: corresponding non-citrullinated peptide of a-enolase peptide 324 (peptide)
peptide: KAKFAGRNFRNPLAK
B15: citrullinated vimentin peptide ref no 104 (peptide)
peptide: SPGGVYAT[Cit]SSAV[Cit]L
B16: vimentin peptide ref no 33 (peptide)
peptide: VDQLTNDKARVEVER
B17: citrullinated vimentin peptide ref no 93 (peptide)
peptide: MST[Cit]SVSSSSY[Cit][Cit]MF
B18: citrullinated vimentin peptide ref no 105 (peptide)
peptide: YAT[Cit]SSAV[Cit]L[Cit]SSVP
B19: vimentin peptide ref no 3 (peptide)
peptide: YRRMFGGPGTASRPS
B20: vimentin peptide ref no 81 (peptide)
peptide: RKLLEGEESRISLPL
B21: vimentin peptide ref no 77 (peptide)
peptide: REYQDLLNVKMALDI
B22: citrullinated vimentin peptide ref no 166 (peptide)
peptide: THSK[Cit]TLLIKTVET[Cit]
B23: citrullinated vimentin peptide ref no 111 (peptide)
peptide: FKNT[Cit]TNEKVELQEL
B24: vimentin peptide ref no 34 (peptide)
peptide: NDKARVEVERDNLAE
B25: vimentin peptide ref no 1 (peptide)
peptide: MSTRSVSSSSYRRMF
B26: citrullinated vimentin peptide ref no 117 (peptide)
peptide: LLAELEQLKGQGKS[Cit]
B27: citrullinated vimentin peptide ref no 108 (peptide)
peptide: GVXLLQDSVDFSLAD
modifications: citrulline (Xaa) at 3
B28: citrullinated vimentin peptide ref no 133 (peptide)
peptide: DNASLA[Cit]LDLE[Cit]KVE
B29: citrullinated vimentin peptide ref no 106 (peptide)
peptide: SAV[Cit]L[Cit]SSVPGV[Cit]LL
B30: vimentin peptide ref no 64 (peptide)
peptide: STEYRRQVQSLTCEV
B31: vimentin peptide ref no 41 (peptide)
peptide: NTLQSFRQDVDNASL
B32: citrullinated vimentin peptide ref no 98 (peptide)
peptide: SS[Cit]SYVTTST[Cit]TYSL
B33: a-enolase peptide ref no 13 (peptide)
peptide: GVSKAVEHINKTIAP
B34: a-enolase peptide ref no 1 (peptide)
peptide: MSILKIHAREIFDSR
B35: a-enolase peptide ref no 12 (peptide)
peptide: RYMGKGVSKAVEHIN

biological target: T1, recombinant MHC class II protein of the HLA DRB1 0401 genotype (human); test: in vitro binding assay
T1 construct: construct not described; also called HLA-DR0401

| Binder | binding result |
| --- | --- |
| B1 | binds |
| B2 | binds |
| B3 | binds |
| B4 | binds |
| B5 | binds |
| B6 | no binding |
| B7 | binds |
| B8 | binds |
| B9 | binds |
| B10 | no binding |
| B11 | no binding |
| B12 | binds |
| B13 | binds |
| B14 | no binding |

biological target: T2, recombinant MHC class II protein of the HLA DRB1 0101 genotype (human); test: in vitro binding assay
T2 construct: construct not described

| Binder | binding result |
| --- | --- |
| B15 | binds |
| B16 | no binding |
| B17 | no binding |
| B18 | binds |
| B19 | binds |
| B20 | no binding |
| B21 | binds |
| B22 | no binding |
| B23 | binds |
| B24 | no binding |
| B25 | binds |
| B26 | binds |
| B27 | no binding |
| B28 | no binding |
| B29 | binds |
| B30 | binds |

biological target: T3, recombinant MHC class II protein of the HLA DRB1 0405 genotype (human); test: in vitro binding assay
T3 construct: construct not described

| Binder | binding result |
| --- | --- |
| B15 | no binding |
| B16 | no binding |
| B18 | no binding |
| B19 | binds |
| B20 | no binding |
| B21 | binds |
| B22 | no binding |
| B23 | no binding |
| B24 | no binding |
| B25 | no binding |
| B31 | binds |
| B32 | binds |
| B26 | no binding |
| B27 | no binding |
| B28 | no binding |
| B29 | binds |
| B30 | binds |

biological target: T1, recombinant MHC class II protein of the …; test: in vitro binding assay; remark: another data set of the same source

| Binder | binding result |
| --- | --- |
| B15 | binds |
| B16 | binds |
| B17 | binds |
| B18 | binds |
| B19 | binds |
| B20 | binds |
| B22 | no binding |
| B23 | binds |
| B24 | binds |
| B25 | binds |
| B31 | binds |
| B32 | binds |
| B27 | binds |
| B28 | binds |
| B29 | binds |
| B30 | binds |

biological target: T4, recombinant MHC class II protein of the HLA DRB1 0404 genotype (human); test: in vitro binding assay
T4 construct: construct not described

| Binder | binding result |
| --- | --- |
| B15 | binds |
| B16 | binds |
| B17 | binds |
| B18 | no binding |
| B19 | binds |
| B20 | no binding |
| B22 | binds |
| B23 | no binding |
| B25 | binds |
| B31 | binds |
| B26 | no binding |
| B27 | no binding |
| B28 | no binding |
| B29 | binds |

biological target: T5, recombinant MHC class II protein of the HLA DRB1 1001 genotype (human); test: in vitro binding assay
T5 construct: construct not described

| Binder | binding result |
| --- | --- |
| B1 | no binding |
| B2 | no binding |
| B3 | binds |
| B4 | no binding |
| B5 | no binding |
| B33 | no binding |
| B7 | no binding |
| B8 | no binding |
| B34 | binds |
| B9 | no binding |
| B12 | no binding |
| B13 | no binding |
| B35 | binds |

biological target: T6, recombinant MHC class II protein of the HLA DRB1 0408 genotype (human); test: in vitro binding assay
T6 construct: construct not described

| Binder | binding result |
| --- | --- |
| B1 | no binding |
| B2 | no binding |
| B3 | no binding |
| B4 | no binding |
| B5 | no binding |
| B33 | no binding |
| B7 | no binding |
| B8 | no binding |
| B34 | no binding |
| B9 | no binding |
| B12 | no binding |
| B13 | no binding |
| B35 | binds |

biological target: T2, recombinant MHC class II protein of the …; test: in vitro binding assay; remark: another data set of the same source

| Binder | binding result |
| --- | --- |
| B1 | no binding |
| B2 | no binding |
| B3 | binds |
| B4 | binds |
| B5 | no binding |
| B33 | binds |
| B7 | no binding |
| B8 | no binding |
| B34 | binds |
| B9 | no binding |
| B12 | no binding |
| B13 | binds |
| B35 | binds |

biological target: T3, recombinant MHC class II protein of the …; test: in vitro binding assay; remark: another data set of the same source

| Binder | binding result |
| --- | --- |
| B1 | binds |
| B2 | binds |
| B3 | binds |
| B4 | binds |
| B5 | binds |
| B33 | no binding |
| B7 | binds |
| B8 | binds |
| B34 | binds |
| B9 | binds |
| B12 | binds |
| B13 | binds |
| B35 | binds |

biological target: T1, recombinant MHC class II protein of the …; test: in vitro binding assay; remark: another data set of the same source

| Binder | binding result |
| --- | --- |
| B33 | no binding |
| B34 | no binding |
| B35 | no binding |

biological target: T4, recombinant MHC class II protein of the …; test: in vitro binding assay; remark: another data set of the same source

| Binder | binding result |
| --- | --- |
| B1 | no binding |
| B2 | binds |
| B3 | binds |
| B4 | binds |
| B5 | no binding |
| B33 | binds |
| B7 | binds |
| B8 | no binding |
| B34 | binds |
| B9 | no binding |
| B12 | binds |
| B13 | binds |
| B35 | no binding |
